Molecular target: IL-15 (Homo sapiens), P40933
Conditions: Fc fusion; remark: other sources report otherwise

Sequence of IL-15 (Homo sapiens), P40933 (P40933 49-162): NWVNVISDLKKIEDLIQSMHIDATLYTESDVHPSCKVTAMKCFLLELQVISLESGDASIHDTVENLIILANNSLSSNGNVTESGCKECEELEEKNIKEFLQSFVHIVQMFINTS

Kd: 0.115 nM
B1: rIL-15Rα-Fc, Q13261 (protein)
chain: ITCPPPMSVEHADIWVKSYSLYSRERYICNSGFKRKAGTSSLTECVLNKATNVAHWTTPSLKCIRDPALVHQRPAPPSTVTTAGVTPQPESLSPSGKEPAASSPSSNNTAATTAAIVPGSQLMPSKSPSTGTTEISSHESSHGTPSQTTAKNWELTASASHQPPGVYPQGHSDTT
